From article PMC7081427

What was measured:
Test in all cases: EMSA
nucleolin RRM-RGG = nucleolin RRM-RGG (UniProt P19338 267-709)
RRM-RGG F/A2 = RRM-RGG F/A2 (UniProt P19338 267-709, F663A;F676A)
RRM-RGG F/A1 = RRM-RGG F/A1 (UniProt P19338 267-709, F663A)
RRM-RGG F/A3 = RRM-RGG F/A3 (UniProt P19338 267-709, F663A;F676A;F684A)
nucleolin RRM [1] = molecular target: T1, nucleolin RRM (UniProt P19338 267-645)
nucleolin RRM [2] = molecular target: T1, nucleolin RRM; remark: listed apart in the source

T1 sequence (P19338 267-645): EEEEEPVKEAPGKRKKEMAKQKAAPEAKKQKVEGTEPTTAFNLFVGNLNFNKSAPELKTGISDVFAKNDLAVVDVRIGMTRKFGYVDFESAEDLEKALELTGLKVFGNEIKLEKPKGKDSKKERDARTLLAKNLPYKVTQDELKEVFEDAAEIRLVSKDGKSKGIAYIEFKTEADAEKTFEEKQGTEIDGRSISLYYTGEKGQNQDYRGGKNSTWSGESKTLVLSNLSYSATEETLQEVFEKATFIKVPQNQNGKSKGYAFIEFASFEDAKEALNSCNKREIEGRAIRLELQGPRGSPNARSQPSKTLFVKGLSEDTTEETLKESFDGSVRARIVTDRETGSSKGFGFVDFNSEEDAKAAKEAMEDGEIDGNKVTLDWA
Sequence of RRM-RGG F/A1 (P19338 267-709 F663A): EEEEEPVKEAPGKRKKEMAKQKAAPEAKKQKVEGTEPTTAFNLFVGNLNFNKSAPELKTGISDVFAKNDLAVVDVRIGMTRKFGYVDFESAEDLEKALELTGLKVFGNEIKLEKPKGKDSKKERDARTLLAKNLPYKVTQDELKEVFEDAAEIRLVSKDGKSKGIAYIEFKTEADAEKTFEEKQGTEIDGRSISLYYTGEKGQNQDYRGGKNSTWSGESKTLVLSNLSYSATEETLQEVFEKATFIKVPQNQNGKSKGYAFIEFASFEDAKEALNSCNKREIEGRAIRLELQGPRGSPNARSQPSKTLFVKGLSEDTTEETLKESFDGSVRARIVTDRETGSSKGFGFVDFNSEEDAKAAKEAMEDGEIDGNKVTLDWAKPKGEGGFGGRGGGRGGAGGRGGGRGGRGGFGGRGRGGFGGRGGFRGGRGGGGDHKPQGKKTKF
Sequence of nucleolin RRM-RGG (P19338 267-709): as the sequence (P19338 267-709 F663A) above, with A397F counted along it
Sequence of RRM-RGG F/A2 (P19338 267-709 F663A/F676A): as the sequence (P19338 267-709 F663A) above, with F410A counted along it
Sequence of RRM-RGG F/A3 (P19338 267-709 F663A/F676A/F684A): as the sequence (P19338 267-709 F663A) above, with F410A, F418A counted along it

| Binder | Kd (nucleolin RRM-RGG) | Kd (RRM-RGG F/A2) | Kd (RRM-RGG F/A1) | Kd (RRM-RGG F/A3) | Kd (nucleolin RRM [1]) | binding result (nucleolin RRM [2]) |
| --- | --- | --- | --- | --- | --- | --- |
| GGGCGCGGGAGGAATTGGGCGGG (structured_DNA) [BCL-2] | 79.6 ± 4 nM | 71.8 ± 6.9 nM | 75.5 ± 9.5 nM | 172 ± 9.1 nM | 73.6 ± 7.1 nM | – |
| GGGGGGGGGG (ssDNA) [dG10] | – | – | – | – | – | binds |
